Experimental findings from PMC4067145 are described below.

Data set [1] deals with T1, U2B″ (human, UniProt P08579 1-225). The data set is described as follows: ITC. A general note: ITC needs no label: the signal is the heat of the interaction.
In data set [2] the target is T2, U1A;U2A′ LRR domain (human;human, UniProt P09012;P09661 1-282;1-180, |). Put plainly: ITC.
Data set [3] addresses T3, U1A (human, UniProt P09012 1-282). The data set is described as follows: ITC.
The target of a further data set is U2B″;U2A′ LRR domain (human;human, UniProt P08579;P09661 1-225;1-180, |). Put plainly: fluorescence titration.
Data set [4] addresses T3, U1A. Put plainly: fluorescence titration.
Data set [5] addresses T1, U2B″. The data set is described as follows: fluorescence titration.
Data set [6] addresses T2, U1A;U2A′ LRR domain. The data set is described as follows: fluorescence titration.
In data set [7] the target is T3, U1A. The data set is described as follows: ITC. This is another data set of the same source.
Data set [8] deals with T1, U2B″. Put plainly: ITC. The source holds these as a separate data set.
Data set [9] has as its target T2, U1A;U2A′ LRR domain. The data set is described as follows: fluorescence titration. This is another data set of the same source.

T2 sequence (P09012 whole entry, chain 1 of 2, the tested form may be a part): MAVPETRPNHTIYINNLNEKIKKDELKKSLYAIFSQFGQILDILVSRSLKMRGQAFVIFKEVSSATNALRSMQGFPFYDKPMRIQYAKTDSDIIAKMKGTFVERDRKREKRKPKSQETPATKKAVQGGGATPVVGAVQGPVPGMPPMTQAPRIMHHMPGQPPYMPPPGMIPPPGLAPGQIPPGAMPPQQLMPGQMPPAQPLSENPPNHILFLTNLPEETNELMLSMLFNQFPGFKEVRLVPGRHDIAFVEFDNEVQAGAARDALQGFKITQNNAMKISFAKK
T2 sequence (P09661 1-180, chain 2 of 2): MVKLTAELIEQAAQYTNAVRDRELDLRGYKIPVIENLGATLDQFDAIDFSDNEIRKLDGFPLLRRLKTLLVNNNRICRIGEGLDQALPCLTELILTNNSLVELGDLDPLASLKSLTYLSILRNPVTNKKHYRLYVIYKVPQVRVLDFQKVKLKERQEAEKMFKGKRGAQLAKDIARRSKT
T3 sequence (P09012 whole entry, the tested form may be a part): as the sequence (P09012 whole entry, chain 1 of 2, the tested form may be a part) above
T1 sequence (P08579 whole entry, the tested form may be a part): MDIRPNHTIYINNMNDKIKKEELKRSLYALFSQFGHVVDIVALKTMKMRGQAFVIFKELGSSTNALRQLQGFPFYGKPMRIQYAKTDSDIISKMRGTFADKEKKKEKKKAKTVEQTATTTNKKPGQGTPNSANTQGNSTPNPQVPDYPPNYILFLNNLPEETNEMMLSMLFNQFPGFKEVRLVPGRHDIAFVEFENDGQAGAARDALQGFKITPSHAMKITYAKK
Chain of U2B″;U2A′ LRR domain (P08579 whole entry, chain 1 of 2, the tested form may be a part): as the sequence (P08579 whole entry, the tested form may be a part) above
Chain of U2B″;U2A′ LRR domain (P09661 1-180, chain 2 of 2): as the sequence (P09661 1-180, chain 2 of 2) above

Usually Kd stands for a measure of binding affinity in units of concentration. Lower therefore signals higher affinity. GGGCACAUUGCACCUCGUGUCCAGACUUCGGUC (structured_RNA) [SLII ITC construct]: the Kd with U2B″ [1] was 92 nM; in the data set with U1A [3] it was less than 7 nM. For the same molecule, the binding signal in the data set with U1A;U2A′ LRR domain [2] is 1.4 ± 7.9 alpha (linkage parameter, fold).

As for GGGCCCGGCAUUGCACCUCGCCGGGUCC (structured_RNA) [FAM-SLII (U1 snRNA stemloop II)], the binding signal is 15.8 ± 1.6 alpha (linkage parameter, fold) with U2B″;U2A′ LRR domain and 7.3 ± 1.3 alpha (linkage parameter, fold) in the data set with U1A;U2A′ LRR domain [6]. For the same molecule, the Kd in the data set with U1A [4] worked out at 0.33 nM; with U2B″ [5], 15 nM.

With GGAGUUUUCCAGGACGUAUUGCAGUACCUCGUCCUGG (structured_RNA) [SLIV ITC construct], the dissociation constant (Kd) in the data set with U1A [7] came out at 100 nM; in the data set with U2B″ [8] it was 2.3 nM. Besides, the binding signal with U1A;U2A′ LRR domain [2] is 34 ± 17 alpha (linkage parameter, fold).

Turning to GGGCCCGGUAUUGCAGUACCGCCGGGUCC (structured_RNA) [FAM-SLIV (U2 snRNA stemloop IV)], the binding signal with U1A;U2A′ LRR domain [9] was 89 ± 11 alpha (linkage parameter, fold); with U2B″;U2A′ LRR domain, 139 ± 49 alpha (linkage parameter, fold). For the same molecule, the dissociation constant (Kd) with U1A [4] is 58 nM; with U2B″ [5], 17 nM.
